Results reported in article PMC3648886.

Key:
Experiment in all cases: FRET or BRET
[1] = molecular target: Monocysteine-reactive type A CCK receptor construct A204C, derivatized with Alexa^546 at position 204 (UniProt P30551)
[2] = molecular target: Monocysteine-reactive type A CCK receptor construct C94, derivatized with Alexa^546 at position 94 (UniProt P30551)
[3] = molecular target: Monocysteine-reactive type A CCK receptor construct T341C, derivatized with Alexa^546 at position 341 (UniProt P30551)
[4] = molecular target: Monocysteine-reactive type A CCK receptor construct N102C, derivatized with Alexa^546 at position 102 (UniProt P30551)

| efficiency of energy transfer [1] [%] | efficiency of energy transfer [2] [%] | efficiency of energy transfer [3] [%] | efficiency of energy transfer [4] [%] | Substance |
| --- | --- | --- | --- | --- |
| 53 | 56 | 64 | 64 | Aladan^24-CCK (peptide) |
| 53 | 58 | 66 | 70 | Aladan^33-CCK (peptide) |
| 54 | 55 | 67 | 66 | Aladan^29-CCK (peptide) |
